Target: GST-Pin1 (UniProt Q13526)
Test: fluorescence polarization; labelled pTide probe titrated with GST-Pin1 (the concentration is that of GST-Pin1)

Chain of GST-Pin1 (Q13526 whole entry): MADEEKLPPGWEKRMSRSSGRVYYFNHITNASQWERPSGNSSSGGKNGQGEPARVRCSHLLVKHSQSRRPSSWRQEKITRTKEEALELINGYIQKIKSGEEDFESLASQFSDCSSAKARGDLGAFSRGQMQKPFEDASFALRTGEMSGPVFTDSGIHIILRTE

**Q.** “TAMRA-conjugated pTide (N-terminal TAMRA-labeled pTide, Bth-D-phos.Thr-Pip-Nal) (peptide)” was tested. Which EC50 (read off the curve) did it give?
**A.** 500 nM

**Q.** Which EC50 (read off the curve) does the source give for “pTide-HiLyte™ Fluor 488 (N-terminal HiLyte™ Fluor 488-labeled pTide, Bth-D-phos.Thr-Pip-Nal) (peptide)” here?
**A.** 500 nM

Source: patent publication US20180064666A1
